Experimental data from the nanobody polyreactivity screen of Harvey et al. (2022).

test: yeast display, Sf9 membrane polyspecificity reagent, FACS + sequencing; frameworks hold sequencing errors
Procedure, shortened: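 Synthetic nanobody libraries on Saccharomyces cerevisiae BJ5465 were galactose-induced for 36–48 hours, stained 1 hour at 4 °C with 10% biotinylated, detergent-solubilized Sf9 membrane reagent and enriched on streptavidin microbeads. FACS then separated cells into low and high (top ~1%) gates by anti-HA (expression) and streptavidin (reagent binding) fluorescence. Genes were colony-PCR amplified, MiSeq 2 × 250 sequenced and CDR-length filtered. A clone's polyreactivity label is that of its gate of origin.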

Row | Sequence | polyreactivity (PSR sort gate)
1 | QVQLVESGGGLVQAGGSLRLSSAASGFTFIRSTMGWYRQAPGKEREFVAAITWSGDSTYYADSVKGRFTISRDNAKNTVYLQMNSLKPEDTAVYYCAAESDPYSPEYDYWGQGTQVTVSS | low polyreactivity
2 | QVQLVESGGGLVQAGGSLRLSSAASGFTFKAYALGWYRQAPGTERELVAAITKSGGRTFYADSVKGRFTISRDNAKNTVYLQINCLNPEDTAVYYCSGRRWGYWTGYRGLDYDYWGQGTQVTVSS | high polyreactivity
3 | QVQLVESGGGLVQAGGSLRLSSAASGFTFKYYAMGWYRQAPGKERELVARITGSSGSTYYADSVKGRFTISRDNAKNTVYLQMNSLKPEDTAVYYCAASFKFRYYRYGAYEYWGQGTQVTVSS | high polyreactivity
4 | QVQLVESGGGLVQAGGSLRLSSAASGFTFRAYTMGWYRQAPGKERELVAAISWSGSSTYYADSVKGRFTISRDTAKNTVYLQMNSLKPEDTAVYYCAARHWRRWFPYDYWGQGTQVTVSS | high polyreactivity
5 | QVQLVESGGGLVQAGGSLRLSSAASGFTFTIYAMGWYRPAPGKERELVDTISTRGGNTYYADSVKGRFTISRDNAKNTVYLQMNSLKPEDTAVYYCAAEHWFPSAPWYYSDLHYYWGQGTQVTVSS | high polyreactivity
6 | QVQLVESGGGLVQAGGSLRLSSAASGFTFWYYAMGWYRQAPGKERELVAAITWNGGSTYYADSVKGRFTISRDNAKNTVYLQMNSLKPEDTAVYYCNAYSPFYPVPSEYDYWGQGTQVTVSS | high polyreactivity
7 | QVQLVESGGGLVQAGGSLRLSSAASGIIFRGYVMGWYRQAPGKERELVAASTWSGGSTYYADSVKGRFTISRDNAKNTVYLQMNSLKPEDTAVYYCNAVRVRVTSHRIRQLDYGYWGQGTQVTVSS | low polyreactivity
8 | QVQLVESGGGLVQAGGSLRLSSAASGIIFRRYAMGWYRQAPGKERELVAAMSWSGGSTYYADSVKGRFTISRDNAKNTVYLQMNSLKPEDTAVYYCAAAAYTRDEYDYWGQGTQVTVSS | high polyreactivity
9 | QVQLVESGGGLVQAGGSLRLSSAASGITFLTNAMGWYRQAPGKERELVAAISGRGTRTYYADSVKGRFTISRDNAKKTVFLQMNRLKPEDTAVYYCAAVRRPVHYPYDYWGQGNQVTVSS | high polyreactivity
10 | QVQLVESGGGLVQAGGSLRLSSAASGITFRRYAMGWYRQAPGKERELVASITSGGSTNYADSVKGRFTISRDNAKYTVYLQMNSLKPDDTAVYYCAADSRWGMDYWGQGTQVTVSS | high polyreactivity
11 | QVQLVESGGGLVQAGGSLRLSSAASGITFSEYAMGRYRQAPGKERELVATITSGGSTNYADSVKGRFTISRDNAKNTVYLQMNSLKPEDTAVYYCNALDGTVDFSGWYDDWGQGTQVTVSS | low polyreactivity
12 | QVQLVESGGGLVQAGGSLRLSSAASGITFSKNAMGRYRQAPGKERELVAAISNSGGSTYYADSVKGRFTISRDNAKNTVYLQMNSVNPEDTAVYYCASDGGYAYGYNHWGQGTQVTVSS | low polyreactivity
13 | QVQLVESGGGLVQAGGSLRLSSAASGLIYPVYAMGWYRQAPGKEREFVASIWRGGTTYYADSVKGRFTISRDNAKNTVYLQMTSLKPEDTAVYYCASRYYPRGLVFPFTKYDYWGLGTQVTVSS | high polyreactivity
14 | QVQLVESGGGLVQAGGSLRLSSAASGLTFFTYTMGWYRQAPGKERELVATINSSGGTTYYADSVKGRFTISRDNAKNTVYLQMNSLKPEDTAVYFCAKRFSPRYYYWGQGTQVTVSS | high polyreactivity
15 | QVQLVESGGGLVQAGGSLRLSSAASGLTFKGYAIGWYRQEPGKESELVAANNGSGGSTYYADSVKRRFTISRDNAKNTVYLQMNSLKPEDTAVYYCNAARGHPYPLSDNVDDYDYWGQGTQVTVSS | low polyreactivity
16 | QVQLVESGGGLVQAGGSLRLSSAASGRIFAVYAMGWYRQAPGKEREFVAAISYSGGITYYADSVKGRFTISRDNAKNTVYLQMNSLKPEDTAVYYCNAYYYFWGQGTQVTVSS | low polyreactivity
17 | QVQLVESGGGLVQAGGSLRLSSAASGRIFPFNAMGWYRQAPGKERELVAAITSSGGRTYYADSVKGRFTISRDNAKNTVYLQMNSLTPEDTAVYYCAGTLVRRARSGPMGYWGQGTQVTVSS | high polyreactivity
18 | QVQLVESGGGLVQAGGSLRLSSAASGRIFRVNAMGLYTQAPGKERELVAAISRRGGSTYYADSVKGRFTISRDNAKNTVYLQMNTLKPEDTAVYYCAKKSYSYGYNSYYYWGQGTQVTVSS | high polyreactivity
19 | QVQLVESGGGLVQAGGSLRLSSAASGRIFSDYAMGWYRQAPGKERELVATITSGDSTNYADSVKGRFTISRDNAKNTVYLQMNSLKPEDTAVYYCNADRFADYDYWGQGTQVTVSS | low polyreactivity
20 | QVQLVESGGGLVQAGGSLRLSSAASGRIFSIYAMGWYRQAPGKERELVAAITDRGGTTHYADSVKGRFTISRDYAKNTVYLQMNSLKPEDTAVYYCASDTYDYSSVEDFDYWGQGTQVTVSS | low polyreactivity
21 | QVQLVESGGGLVQAGGSLRLSSAASGRIFSRNTMGCYRQAPGKERELVAAIRYSGGRTYYADSVKGRFTISRDNAKNTVYLQMNCLKQEDTAVYYCAARWYGQGVSYRMDYWGQGTQVTVSS | high polyreactivity
22 | QVQLVESGGGLVQAGGSLRLSSAASGRIFTYYAMGWYRQAPGKVREVVAAISFRGASTYYADSVKGRVTISRDYAQNTVYLQMHSLKPEDTAVYYGAAERIARPTIDYWGQGTQVTVSS | low polyreactivity

Row | Sequence | polyreactivity (PSR sort gate)
23 | QVQLVESGGGLVQAGGSLRLSSAASGRIFVVNAMGWYRQAPGKERELVAAISKSGARTYYADSVKGRFTISRDNAKNTVYLQMNSLKPEDTAVYYCAAESKGYSQSVFPYDYWGQGTQVTVSS | high polyreactivity
24 | QVQLVESGGGLVQAGGSLRLSSAASGRIFYGYAMGWYRQAPGKERELVAAITNTGVDTYYADSVKGRFTISRDNEKNTVYLQMNSLKPEDTAVYYCAADGRRPKSGYWGQGTQVTVSS | low polyreactivity
25 | QVQLVESGGGLVQAGGSLRLSSAASGRTFAGYTMGWYRQAPGKERELVAAITKSGGSTYYADSVKGRFTISRDNAKNTVYLQMNSLKPEDTAFYYCAARYIPSRYGTGGGYYSWGQGTQVTVSS | high polyreactivity
26 | QVQLVESGGGLVQAGGSLRLSSAASGRTFNYYPMGWYRQAPGKQWELVAAISDSAGDTYYADSVKGRFTISRDNAKNTVDLQKNSQKPEDPAVYYCAVVRGGRGYPGYDYWGQGTQVTVSS | low polyreactivity
27 | QVQLVESGGGLVQAGGSLRLSSAASGRTFQYYAMGWYRQAPGKERELVAAITSGGSTYYADSVKGRFTISRDNAKNTVSLQMNSLKPEDTAVYYCAATFYYSGHDDYWGQGTQVTVSS | low polyreactivity
28 | QVQLVESGGGLVQAGGSLRLSSAASGRTFRRYAMGWYRQAPGKERELVATITNAGSTYYADSVKGRFTISRDNAKNTVYLPMNSLKPEDTAVYYCAARVPYKSDYWGQGTQVTVSS | low polyreactivity
29 | QVQLVESGGGLVQAGGSLRLSSAASGRTFRYNAMGWYRQAPGKERELVAAISWSGTSTYYADSVKGRFTISRDNAKNTVYLQMNSLKPEDTAVYYCAARGLYDYGYWGQGTQVTVSS | high polyreactivity
30 | QVQLVESGGGLVQAGGSLRLSSAASGRTFTTYAMGWYRQAHGKERELVAAISGSGGSTYYADSVKGRFTISRDNAKNTVYLQMNSLKPEDTAVYYCATAYYYHGGYYYPYDDYWGQGTQVTVSS | low polyreactivity
31 | QVQLVESGGGLVQAGGSLRLSSAASGRTFVHYAMGWYRQAPGKERELVAAISWSGGSTYYADSVKGRFTISRDNAKNTVYLQMNSLKPEDTAVYYCNAGGFAPGRYGEFDYWGQGTQVTVSS | low polyreactivity
32 | QVQLVESGGGLVQAGGSLRLSSAASGRTFVSYAMGWYRQAPGKERELVAVITYSGGSTNYADSVKGRFTISRDNAKNTVYLQMNSLKPEDTAVYYCAATQSIPYSTLYSYDYWGQGTQVTVSS | low polyreactivity
33 | QVQLVESGGGLVQAGGSLRLSSAASGRTFYGNAMGWYRQAPGKERELVATINYSGGSTYYADSVKGRFTISRDNAKNTVYLQMNSLKPEDTAVYYCAAVDPEEFDYWGQGTQVTVSS | low polyreactivity
34 | QVQLVESGGGLVQAGGSLRLSSAASGSIFETYAMGWSRQAPGKERELVAAITQSGGSTYYADSVKGRFTISRDNAKNTVYLQMNSLKPEDTAVYYCAADLVVWWKWGYEYWGQGTQVTVSS | low polyreactivity
35 | QVQLVESGGGLVQAGGSLRLSSAASGSIFGSNAMGWYRPAPVKERELVAAISSGSTYYADSVKGRFTISRDNAKNTVYLQMNSLKPEDTAVYYCYARSLLYEFDYWGQGTQVTVSS | low polyreactivity
36 | QVQLVESGGGLVQAGGSLRLSSAASGSIFGYAMGWYRQAPGKERELVARIDWSGGRTYYADSVKGRFTISRDNAKNTVYLQMYSLKPDDTAVYYCYARRYLYRGNIVDYWGQGTQVTVSS | high polyreactivity
37 | QVQLVESGGGLVQAGGSLRLSSAASGSIFPANALGWYRQAPGKERELVAASTANGGSTYYADSVKGRFTISRDNAKNTVYLQMNSLKPEDTAVYYCNAYFVSGHAGGYDYWGQGTQETVSS | high polyreactivity
38 | QVQLVESGGGLVQAGGSLRLSSAASGSIFPYYAMGWYRQAPGKERELVAAISWSGTSTYYADSVKGRFTISRDNAKNTVYLQMNSLKPEDTAVYYCNAGYYHFYASGYDYWGQGTQVTVSS | low polyreactivity
39 | QVQLVESGGGLVQAGGSLRLSSAASGSIFRFYTMGWYRQAPGKERELVAAISASGGNTYYADSVKGRFTISRDNAKNTVYLQMNSLKPEDTAVYYCARVKFTKYDYWGQGTQVTVSS | high polyreactivity
40 | QVQLVESGGGLVQAGGSLRLSSAASGSIFSDYAMGWYRQAPGKERELVAAISGTGGGTYYADSVKGRFTISRDNAKNTVYLQMNSLKPEDTAVYYCAADYVFAWWGDYYWGQGTQVTVSS | high polyreactivity
41 | QVQLVESGGGLVQAGGSLRLSSAASGSIFVLNAMGWYRQAPGKERELVAAITNVGSTYYADSVKGRFTISRDNAKNTVYLQMNSLKPEDTAVYYCNADPGEVLVGYDYWGQGTQVTVSS | low polyreactivity
42 | QVQLVESGGGLVQAGGSLRLSSAASGSIFWVYAMGWYRQAPGKERELVAAISNRGGSTYYADSVKGRFTISRDNAKNTVYLQMNSLKPEDTAVYYCAAVVAHHYYWGQGTQVTVSS | high polyreactivity
43 | QVQLVESGGGLVQAGGSLRLSSAASGSIFYKNAKGWYRQAPGKEREFVAGISRRGGSTYYADSVKGRFTISLDNAKNTVYLQMNSLKPEDTAVYYCASSQSGGYDYWGQGTQVTVSS | high polyreactivity
